This experiment concerns the target T1, CNA1 (Saccharomyces cerevisiae, UniProt P23287).
T1 chain: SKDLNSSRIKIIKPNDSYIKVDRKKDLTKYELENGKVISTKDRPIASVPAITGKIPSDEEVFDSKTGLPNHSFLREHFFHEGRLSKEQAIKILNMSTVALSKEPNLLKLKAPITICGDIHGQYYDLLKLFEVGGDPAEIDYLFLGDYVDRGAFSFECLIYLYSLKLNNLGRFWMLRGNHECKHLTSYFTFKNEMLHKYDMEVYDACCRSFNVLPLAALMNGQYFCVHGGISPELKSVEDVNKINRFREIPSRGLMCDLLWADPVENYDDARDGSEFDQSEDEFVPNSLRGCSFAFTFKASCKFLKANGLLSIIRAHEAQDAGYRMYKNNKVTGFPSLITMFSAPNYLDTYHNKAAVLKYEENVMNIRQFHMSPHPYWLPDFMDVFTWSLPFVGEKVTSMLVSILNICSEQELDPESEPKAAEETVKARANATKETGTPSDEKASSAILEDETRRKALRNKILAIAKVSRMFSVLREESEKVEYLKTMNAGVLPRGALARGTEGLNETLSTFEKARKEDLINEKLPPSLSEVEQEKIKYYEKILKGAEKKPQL
Nature of the experiment: SPROX.

Here are results for one molecule from paper PMC3085011 (2011).

B1: CPR1 (protein)
chain: not shown
modifications: cyclosporin A
As to B1, the Kd is 120 nM.
